Test results reported in the supplement of paper PMC12042874.
± gives the uncertainty stated by the source.

assay: amyloid nucleation score (Sup35N fusion, yeast selection) (log enrichment); library NNK3; higher = more nucleation; inactive = no reads after selection
Outline: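 The nucleation score is the DiMSum log enrichment of output over input reads, centred on the mode score of non-aggregating sequences. Only sequences with 100 or more input reads were scored, using Illumina sequencing of input and output plasmid inserts. Psi-negative yeast expressing Sup35N fused to peptides of 20 random codons were induced 24 hours with 100 μM copper sulfate and grown 7 days at 30°C on medium lacking adenine and uracil.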

Row | Substance | amyloid nucleation score
1 | RGDSRFP | 0.08 ± 0.88
2 | ARMLRYRHIAS | inactive
3 | VDEYVLWVSYYPWWYRVNTV | inactive
4 | THRFVVLCEIITNPTEMGSG | 0.703 ± 0.35
5 | MVLGMYKQ | inactive
6 | SMADHAESLNSSGSNRQQLG | inactive
7 | ICIHLELRILCPHHAPDGSL | -0.118 ± 0.43
8 | GLNGIDLKLSVAGFVVFLGR | 1.48 ± 0.14
9 | AGSDHVLRDRHYVVMPQEFL | inactive
10 | SLPLCWAMAKGSISHRMERY | inactive
11 | SYVLLHHLLVMSWVRV | inactive
12 | STLCSSCKGFDRMRYILVTR | 0.274 ± 0.38
13 | VFLSAVAGDYIV | inactive
14 | YAMYSYFFIVAWFFNRS | 0.252 ± 0.39
15 | RSWESV | inactive
16 | VPLIMSRGRRCRMLFKLPST | inactive
17 | FFLTYTIECVGLNHMILSIM | inactive
18 | LMFEL | inactive
19 | RQFVIFYYSLIGHVNSWLRP | inactive
20 | MLLSVRRGSLWESRPRTWLM | 0.535 ± 0.22
21 | TVSCLLKKVSRIVTVCVEWD | inactive
22 | PDLVNISSSPYRRCGYRWVD | inactive
23 | KRFGFVNFNCYDLYIKFEIM | 1.28 ± 0.13
24 | TIIDGLKCFFPAFFME | inactive

Row | Substance | amyloid nucleation score
25 | TDPGILYMSCIRVMLGLFWD | inactive
26 | TYYTGQLNVTEVVFLYISGS | 1.96 ± 0.069
27 | VIDEYQSVICGYLIRGWHAS | 1.79 ± 0.088
28 | TLSAEGVRRLFTCACSYHEG | 0.532 ± 0.47
29 | QGNSIWMYLGWVNKTML | inactive
30 | SELLPNYTKGVLTGDIYSRY | inactive
31 | WLGWPD | inactive
32 | GLRGVDWVDREQLPGTVQGH | -0.589 ± 1.9
33 | YVEMYN | inactive
34 | LSPYRYSCYPYPTYSRYP | 0.44 ± 0.24
35 | TNRIHPFERVLFVCVSGQGV | inactive
36 | SVELNTKLVRYEVLSRMYRA | inactive
37 | NLSNLLNLVRLVRGRLGNAA | inactive
38 | EFSKHFPCWHRNSVAYYEIR | inactive
39 | QVRVVGHFKWYRIGTKVRDI | inactive
40 | SNCFQYECMSWSWDYLHECW | inactive
41 | HISWFIFLCGGSFDSVMLAN | inactive
42 | LSVFDMGIRKM | inactive
43 | VGLIRCLVDVKLI | inactive
44 | IFLCLSICMFRPFRMVLS | inactive
45 | KSAWLRLCIVR | inactive
46 | GFDLEVNTGNVVGFEDSAGQ | inactive
47 | YTLAC | inactive
48 | STMDRSVKVVGPSSRPEGSV | inactive

Row | Substance | amyloid nucleation score
49 | ELMHFLAFVGDAMYVLSGII | inactive
50 | SVVPQDDILLNCGLEQAILG | inactive
51 | EFIGGRAMLYEEWYMGVSSM | inactive
52 | GRDLLLRHTMSRGCQILLE | inactive
53 | TSILMPASDVLKMQVVPWLS | 0.904 ± 0.16
54 | RSRNAAVDFCLPSSPWSSSV | inactive
55 | SCLHSSSFCKR | inactive
56 | ILQMVDVGMEICYTPVLAYF | inactive
57 | CKCVCNGAKDRFST | inactive
58 | ISPVRRWPQLLIYAMVTGGQ | inactive
59 | KAQAFLWPVPDIQ | -0.571 ± 1.9
60 | CLGVSNTYHWSYRRIFRYRF | inactive
61 | KRWEPMACPDSNRDKLKECV | inactive
62 | RVMWYGGCCWSVIYCHRLGV | inactive
63 | ILLQVLIR | inactive
64 | VTGLEVRHQRHIWHNMGMIR | inactive
65 | PYFRMVNYYFFMTVSGRFNF | -0.507 ± 1
66 | CVDYKRMNGFKCTLDVFRAI | 0.184 ± 0.61
67 | WRIDDY | inactive
68 | RYLTNLWNYTFLINRAMLTY | inactive
69 | IASSSWHVMIWYSPRSCVFS | inactive
70 | LCYTPRGNKFTHLKW | 0.595 ± 0.18
71 | TLVFHISFGDLVHEILNCAV | 2.17 ± 0.088
72 | GYLQGIYYGFTSCRKTSNQD | inactive

Row | Substance | amyloid nucleation score
73 | PDLITLIFGSHFGKCSFISY | inactive
74 | GKLLP | inactive
75 | EPNVFSSLGILNINVVALWL | 0.98 ± 0.2
76 | LNEVTVLTIMMCLRS | 0.971 ± 0.16
77 | EFLPSCICDGKFISSLVCEP | inactive
78 | VVGKFSTADILSFR | inactive
79 | PIRWYRRSLFLCWLTDDRLG | inactive
80 | SWHDINVAFADSFIDSKETC | inactive
81 | LYSVSAAMDTIKPLFPRGNA | inactive
82 | NYVLGGCNLGSSGCRVRLSC | inactive
83 | GIAIDREKVVPIRGYLWSVT | inactive
84 | VLGNFSSFVAAKVARRS | inactive
85 | MAFYQHDILTMFLYRFRDAR | inactive
86 | IFASDTVL | inactive
87 | SSFFMRIVCMFYLIRKVMKC | inactive
88 | SQCRVYN | inactive
89 | TQCSNTGCCIEGNLT | inactive
90 | YFNLSEYGLCCYRGFRVYKS | 1.23 ± 0.18
91 | IGITHFRTCDGHNVRGRNRW | inactive
92 | GMLGTGYVYPCWL | inactive
93 | SSTNPGIH | inactive
94 | HWGRDFLGFVTAFDGCVSQL | inactive
95 | VQLSMPGFGDWCRIRWVTAG | inactive
96 | VNKVDGLETMQYIFTCGSWM | 0.098 ± 0.23

Row | Substance | amyloid nucleation score
97 | YCVLVIFVGFCFMEFENVTQ | inactive
98 | SYYYPNIVRIEHPHCTRHHA | inactive
99 | VRLVGLCFYIAMSLPSSFFI | inactive
100 | YQKFNKLRLRNLPHLYDFVL | inactive
101 | YRLRNCFRHMPAAQTFTP | inactive
102 | IWPWSFALIMS | inactive
103 | FLKLSLDIMFPYQIVYMPTT | inactive
104 | GMRFCVNVVCMRSLPSCAMK | 1.43 ± 0.095
105 | KVVIF | inactive
106 | FHILIFVKTP | inactive
107 | FQLSPTDRVYRDRSAYDVEG | inactive
108 | ISQCVCSSYA | -0.265 ± 0.7
109 | LYSAAVVNGGLCDRL | inactive
110 | NSSLCYFENLTTAIFVMEWI | inactive
111 | SAREKIVLRVS | -0.684 ± 1.1
112 | MGSYM | inactive
113 | RQADMYRYLFWGRWTVWCSW | inactive
114 | YVILPLEAPFS | 1.49 ± 0.095
115 | VVYIRWYIRLLRHNIVSILS | inactive
116 | LYRRVHVMGPVSHLDKLERC | inactive
117 | FNFCCLSKQGAFFMGTYCCP | 0.341 ± 0.6
